Earlier results on one substance are cited in PMC5430633.

The target of this series is LC3B (Homo sapiens) (UniProt Q9GZQ8).

As a reminder, the Kd is the constant that tells how readily two partners part at equilibrium. In the case of Nix LIR (from UniProt O60238), the Kd was 91 µM.
